Test [1] concerns the target Apaf-1 (human (endogenous in HeLa)) (UniProt O14727).
Test [2] has the same target. The source holds these as a separate data set.

UniProt O14727, sequence (O14727 whole entry): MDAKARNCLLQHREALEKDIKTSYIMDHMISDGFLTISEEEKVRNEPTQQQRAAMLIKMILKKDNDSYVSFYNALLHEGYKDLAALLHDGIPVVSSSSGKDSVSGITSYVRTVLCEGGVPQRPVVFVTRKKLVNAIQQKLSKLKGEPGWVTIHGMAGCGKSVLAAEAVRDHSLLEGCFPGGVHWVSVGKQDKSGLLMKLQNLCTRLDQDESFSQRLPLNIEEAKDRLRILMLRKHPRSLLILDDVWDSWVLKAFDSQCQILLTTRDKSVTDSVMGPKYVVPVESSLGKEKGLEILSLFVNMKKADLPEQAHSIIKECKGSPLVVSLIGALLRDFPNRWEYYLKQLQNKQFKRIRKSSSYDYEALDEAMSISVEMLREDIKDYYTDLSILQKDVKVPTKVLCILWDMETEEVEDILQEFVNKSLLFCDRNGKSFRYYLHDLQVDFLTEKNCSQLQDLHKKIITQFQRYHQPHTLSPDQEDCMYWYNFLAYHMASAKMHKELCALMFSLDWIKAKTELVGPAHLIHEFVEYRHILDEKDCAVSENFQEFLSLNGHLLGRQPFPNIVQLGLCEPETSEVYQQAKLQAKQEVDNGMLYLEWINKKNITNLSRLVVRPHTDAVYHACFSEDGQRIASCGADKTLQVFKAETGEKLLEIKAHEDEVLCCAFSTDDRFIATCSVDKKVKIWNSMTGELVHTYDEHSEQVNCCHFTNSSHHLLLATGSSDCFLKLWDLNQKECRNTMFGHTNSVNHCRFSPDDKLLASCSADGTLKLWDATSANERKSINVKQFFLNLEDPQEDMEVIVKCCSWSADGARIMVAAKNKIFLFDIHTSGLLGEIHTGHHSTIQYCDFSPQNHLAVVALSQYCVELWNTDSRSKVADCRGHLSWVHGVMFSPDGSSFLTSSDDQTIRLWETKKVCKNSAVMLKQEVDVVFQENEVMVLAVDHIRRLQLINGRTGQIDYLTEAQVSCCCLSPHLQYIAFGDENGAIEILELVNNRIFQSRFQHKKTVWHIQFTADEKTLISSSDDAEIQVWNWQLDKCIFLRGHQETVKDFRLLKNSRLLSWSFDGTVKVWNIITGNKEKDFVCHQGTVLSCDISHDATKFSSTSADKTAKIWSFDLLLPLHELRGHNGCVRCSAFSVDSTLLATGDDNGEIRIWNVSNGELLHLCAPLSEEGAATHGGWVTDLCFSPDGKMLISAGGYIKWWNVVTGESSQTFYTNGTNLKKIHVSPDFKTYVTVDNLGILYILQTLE

In test [1], “Cytochrome c from equine heart (from UniProt P00004 1-105) (natural protein)” yielded a cell-free caspase 3 activation in HeLa cytosol (DEVD-pNA), relative to non-modified Cyt c (the reference itself) of 100% and a cell-free caspase 9 activation in HeLa cytosol (LEHD-pNA), relative to non-modified Cyt c (the reference itself) of 100%. In test [2], this substance registered a relative caspase 3 activation in a cell-free system after precipitation of Cyt c with acetone (water-organic solvent interface) of 51% and a relative caspase 3 activation in a cell-free system after precipitation of Cyt c with acetonitrile (water-organic solvent interface) of 64%.

The record behind these values is paper PMC4137108.
